T1: AtTIFY1 (Arabidopsis thaliana, UniProt Q9LRH6 1-309)
T1 sequence: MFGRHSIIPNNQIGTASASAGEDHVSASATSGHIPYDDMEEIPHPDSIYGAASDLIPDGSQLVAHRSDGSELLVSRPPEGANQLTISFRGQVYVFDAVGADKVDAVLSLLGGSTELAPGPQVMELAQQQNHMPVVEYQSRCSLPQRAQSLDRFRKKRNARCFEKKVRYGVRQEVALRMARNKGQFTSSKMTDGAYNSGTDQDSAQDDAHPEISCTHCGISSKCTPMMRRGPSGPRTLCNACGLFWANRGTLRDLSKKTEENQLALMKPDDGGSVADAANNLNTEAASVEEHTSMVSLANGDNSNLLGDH

T2: AtbZIP63 (Arabidopsis thaliana, UniProt B9DGI8 1-314)
T2 sequence: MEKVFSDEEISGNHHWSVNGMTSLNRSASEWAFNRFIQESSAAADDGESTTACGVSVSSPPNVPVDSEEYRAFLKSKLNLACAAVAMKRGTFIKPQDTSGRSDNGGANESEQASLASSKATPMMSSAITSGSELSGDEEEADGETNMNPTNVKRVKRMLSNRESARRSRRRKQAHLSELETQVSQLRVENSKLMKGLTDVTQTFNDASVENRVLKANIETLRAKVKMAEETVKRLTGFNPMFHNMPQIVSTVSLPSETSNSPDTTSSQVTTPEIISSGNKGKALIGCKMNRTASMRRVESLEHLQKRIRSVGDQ

B1: probe 38 version with palindromic TGATCA (dsDNA)
DNA 1: AAAAAATTTATACTTGATCATGGCTTAAAA
DNA 2: TTTTAAGCCATGATCAAGTATAAATTTTTT
B2: 108 (dsDNA)
DNA 1: AAAAAAGGCGTCTGACTGTAACTCGTAAAA
DNA 2: TTTTACGAGTTACAGTCAGACGCCTTTTTT
B3: 276 (dsDNA)
DNA 1: AAAAAACATCGCTGTCGTTGACGTTGAAAA
DNA 2: TTTTCAACGTCAACGACAGCGATGTTTTTT
B4: 233 (dsDNA)
DNA 1: AAAAAAGGTCCAGTCCACGTCATCAGAAAA
DNA 2: TTTTCTGATGACGTGGACTGGACCTTTTTT
B5: 239 (dsDNA)
DNA 1: AAAAAAGTCGTTACACGTATGCGTGCAAAA
DNA 2: TTTTGCACGCATACGTGTAACGACTTTTTT
B6: 202 (dsDNA)
DNA 1: AAAAAAGATTGACTCGTCTTACTCGAAAAA
DNA 2: TTTTTCGAGTAAGACGAGTCAATCTTTTTT
B7: 246 (dsDNA)
DNA 1: AAAAAACTGACCGTCAGCGCCCACGCAAAA
DNA 2: TTTTGCGTGGGCGCTGACGGTCAGTTTTTT
B8: 160 (dsDNA)
DNA 1: AAAAAACGGTCGCGATCGTTAATGATAAAA
DNA 2: TTTTATCATTAACGATCGCGACCGTTTTTT
B9: 282 (dsDNA)
DNA 1: AAAAAACAGGCCGATTCCGATCCCGGAAAA
DNA 2: TTTTCCGGGATCGGAATCGGCCTGTTTTTT
B10: 201 (dsDNA)
DNA 1: AAAAAAGATCTAGGCCTTGGGACTCAAAAA
DNA 2: TTTTTGAGTCCCAAGGCCTAGATCTTTTTT
B11: 32 (dsDNA)
DNA 1: AAAAAACCTACGATGGTTCTGATCTTAAAA
DNA 2: TTTTAAGATCAGAACCATCGTAGGTTTTTT
B12: 234 (dsDNA)
DNA 1: AAAAAAGGTCTGGACGATCACCGGGAAAAA
DNA 2: TTTTTCCCGGTGATCGTCCAGACCTTTTTT
B13: 238 (dsDNA)
DNA 1: AAAAAATCGGGGATCCGGGCGGTTGCAAAA
DNA 2: TTTTGCAACCGCCCGGATCCCCGATTTTTT
B14: 15 (dsDNA)
DNA 1: AAAAAAATCCGATCGATGCATATATAAAA
DNA 2: TTTTATATATGCATCGATCGGATTTTTTT
B15: 305 (dsDNA)
DNA 1: AAAAAACGCTTTCAGTTTTGATCTTAAAAA
DNA 2: TTTTTAAGATCAAAACTGAAAGCGTTTTTT
B16: 130 (dsDNA)
DNA 1: AAAAAACGCAACTCCGGATGTGGGGTAAAA
DNA 2: TTTTACCCCACATCCGGAGTTGCGTTTTTT
B17: 204 (dsDNA)
DNA 1: AAAAAAGGAAGTACTGACGATCTGGAAAAA
DNA 2: TTTTTCCAGATCGTCAGTACTTCCTTTTTT
B18: 290 (dsDNA)
DNA 1: AAAAAATGTCTAGACTCGGACATTCGAAAA
DNA 2: TTTTCGAATGTCCGAGTCTAGACATTTTTT
B19: 314 (dsDNA)
DNA 1: AAAAAATTGGCACACATGATCTCGGGAAAA
DNA 2: TTTTCCCGAGATCATGTGTGCCAATTTTTT
B20: 300 (dsDNA)
DNA 1: AAAAAACTCGCGCTTGCATCTGTGCGAAAA
DNA 2: TTTTCGCACAGATGCAAGCGCGAGTTTTTT
B21: 227 (dsDNA)
DNA 1: AAAAAAGGCTCCGGCCCCCAATCGCAAAAA
DNA 2: TTTTTGCGATTGGGGGCCGGAGCCTTTTTT
B22: 334 (dsDNA)
DNA 1: AAAAAATTCCGGCTTGACGCTGCATAAAAA
DNA 2: TTTTTATGCAGCGTCAAGCCGGAATTTTTT
B23: 109 (dsDNA)
DNA 1: AAAAAATACGTCTACGTGGTTGTCGTAAAA
DNA 2: TTTTACGACAACCACGTAGACGTATTTTTT
B24: 313 (dsDNA)
DNA 1: AAAAAATCGCGAACGTACGTCCGCGGAAAA
DNA 2: TTTTCCGCGGACGTACGTTCGCGATTTTTT
B25: 124 (dsDNA)
DNA 1: AAAAAAACTCACGGCGTCACTATGGTAAAA
DNA 2: TTTTACCATAGTGACGCCGTGAGTTTTTTT
B26: 31 (dsDNA)
DNA 1: AAAAAATCCACGACTCAGCAGCTCTTAAAA
DNA 2: TTTTAAGAGCTGCTGAGTCGTGGATTTTTT
B27: 44 (dsDNA)
DNA 1: AAAAAAGTACATGCGTAGATAATGTTAAAA
DNA 2: TTTTAACATTATCTACGCATGTACTTTTTT
B28: 223 (dsDNA)
DNA 1: AAAAAAGGCCACGGTAACCCCTTTTGAAAA
DNA 2: TTTTCAAAAGGGGTTACCGTGGCCTTTTTT
B29: 64 (dsDNA)
DNA 1: AAAAAATCGGGCCCCGTTAGCACTCTAAAA
DNA 2: TTTTAGAGTGCTAACGGGGCCCGATTTTTT
B30: 287 (dsDNA)
DNA 1: AAAAAACACGCCATTGACACTGGTAAAAAA
DNA 2: TTTTTTACCAGTGTCAATGGCGTGTTTTTT
B31: 294 (dsDNA)
DNA 1: AAAAAACGTGCGCGTGCATGTCATCGAAAA
DNA 2: TTTTCGATGACATGCACGCGCACGTTTTTT
B32: 110 (dsDNA)
DNA 1: AAAAAAGCGTAAGCCTTGACAGTCGTAAAA
DNA 2: TTTTACGACTGTCAAGGCTTACGCTTTTTT
B33: 270 (dsDNA)
DNA 1: AAAAAACATGTCGCACCTGTACTAACAAAA
DNA 2: TTTTGTTAGTACAGGTGCGACATGTTTTTT
B34: 259 (dsDNA)
DNA 1: AAAAAAGTAGGTGCTGATGCTGGCCGAAAA
DNA 2: TTTTCGGCCAGCATCAGCACCTACTTTTTT
B35: 153 (dsDNA)
DNA 1: AAAAAATGTATTCGTGTCCACTCCATAAAA
DNA 2: TTTTATGGAGTGGACACGAATACATTTTTT

What was measured:
AtTIFY1 [1] = target: T1, AtTIFY1; test: DPI-ELISA; highest affinity; DPI-ELISA on streptavidin plates with biotinylated dsDNA (1 pmol in Figure S1, 2 pmol in Figure 1 legend) and crude E. coli extract; anti-His detection; buffer, pH and temperature not given (ref 46); conditions: protein: recombinant; tags: C-terminal His (pET-DEST42); label: 5' biotin on forward strand; blunt
WRKY33 cDBD = WRKY33 cDBD (Arabidopsis thaliana, UniProt Q8S8P5 345-449); test: DPI-ELISA; DPI-ELISA, streptavidin 384-well plate, 1-2 pmol biotinylated dsDNA per well, crude native E. coli extract, anti-His detection; buffer as in Brand et al. [46],; high values mean tight binding; conditions: tags: C-terminal His (pET-DEST42); label: 5' biotin on forward strand
AtbZIP63 = target: T2, AtbZIP63; test: as above; conditions: tags: C-terminal His (pET-DEST42); chain copies: 2; label: 5' biotin on forward strand
AtTIFY1 [2] = target: T1, AtTIFY1; test: as above; conditions: tags: C-terminal His (pET-DEST42); label: 5' biotin on forward strand

Sequence of WRKY33 cDBD (Q8S8P5 other isoform, or with tags, fused parts or gaps): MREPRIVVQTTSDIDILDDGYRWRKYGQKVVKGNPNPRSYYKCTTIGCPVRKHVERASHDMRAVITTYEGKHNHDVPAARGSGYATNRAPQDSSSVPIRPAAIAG

| Binder | binding signal (AtbZIP63) | binding signal (AtTIFY1 [2]) | other results |
| --- | --- | --- | --- |
| B1 |  |  | binding result (AtTIFY1 [1]): binds |
| B2 | 2.54 relative normalized absorbance |  | binding signal (WRKY33 cDBD): 2.35 relative normalized absorbance |
| B3 | 2.02 relative normalized absorbance |  | binding signal (WRKY33 cDBD): 2.34 relative normalized absorbance |
| B4 | 2.57 relative normalized absorbance |  | binding signal (WRKY33 cDBD): 2.34 relative normalized absorbance |
| B5 | 2.62 relative normalized absorbance |  | binding signal (WRKY33 cDBD): 2.32 relative normalized absorbance |
| B6 | 2.68 relative normalized absorbance |  | binding signal (WRKY33 cDBD): 2.3 relative normalized absorbance |
| B7 | 1.96 relative normalized absorbance |  | binding signal (WRKY33 cDBD): 2.09 relative normalized absorbance |
| B8 |  | 1.47 relative normalized absorbance | binding signal (WRKY33 cDBD): 2.05 relative normalized absorbance |
| B9 |  | 1.83 relative normalized absorbance |  |
| B10 |  | 1.81 relative normalized absorbance |  |
| B11 |  | 1.8 relative normalized absorbance |  |
| B12 |  | 1.7 relative normalized absorbance |  |
| B13 |  | 1.69 relative normalized absorbance |  |
| B14 |  | 1.63 relative normalized absorbance |  |
| B15 |  | 1.55 relative normalized absorbance |  |
| B16 |  | 1.54 relative normalized absorbance |  |
| B17 |  | 1.52 relative normalized absorbance |  |
| B18 |  | 1.52 relative normalized absorbance |  |

| Binder | binding signal (AtbZIP63) | binding signal (AtTIFY1 [2]) | other results |
| --- | --- | --- | --- |
| B19 |  | 1.5 relative normalized absorbance |  |
| B20 |  | 1.45 relative normalized absorbance |  |
| B21 |  | 1.44 relative normalized absorbance |  |
| B22 |  | 1.43 relative normalized absorbance |  |
| B23 | 2.98 relative normalized absorbance |  |  |
| B24 | 2.62 relative normalized absorbance |  |  |
| B25 | 2.46 relative normalized absorbance |  |  |
| B26 | 2.32 relative normalized absorbance |  |  |
| B27 | 2.11 relative normalized absorbance |  |  |
| B28 | 2.06 relative normalized absorbance |  |  |
| B29 | 2.04 relative normalized absorbance |  |  |
| B30 | 1.99 relative normalized absorbance |  |  |
| B31 | 1.97 relative normalized absorbance |  |  |
| B32 | 1.94 relative normalized absorbance |  |  |
| B33 | 1.93 relative normalized absorbance |  |  |
| B34 | 1.92 relative normalized absorbance |  |  |
| B35 | 1.89 relative normalized absorbance |  |  |
